Results taken from paper PMC3753642.
pKd: −log10 of the molar value.

Target: Hfq TM R16A;R17A;R19D (Escherichia coli) (UniProt P0A6X3)
Assay: EMSA
Details: TNK buffer (composition and pH not in material), 30 C

Substance	pKd
DsrA sRNA	6.52

Target: Hfq WT (Escherichia coli) (UniProt P0A6X3)
Assay: EMSA
Details: TNK buffer (composition and pH not in material), 30 C

Substance	pKd
rpoS323 mRNA leader	6.84
ArcZ56 sRNA	7.31
RprA sRNA	6.73
DsrA sRNA	6.88

Target: Hfq:R16A R16A (Escherichia coli) (UniProt P0A6X3)
Assay: EMSA
Details: TNK buffer (composition and pH not in material), 30 C

Substance	pKd
rpoS323 mRNA leader	6.71
ArcZ56 sRNA	6.72
RprA sRNA	6.21
DsrA sRNA	6.43
